In publication PMC9340540, “A heterotypic assembly mechanism regulates CHIP E3 ligase activity” (The EMBO Journal, 2022):

Legend:
CHN-1 = CHN-1 (C. elegans); test: cell-based or functional assay
[1] = biological target: T1, M1 linked linear ubiquitin (di-Ub) (UniProt P0CG48 1-76; P0CG48 1-76); test: SPR; Biacore S200, 25°C; His-tagged UFD-2 or His-tagged Ufd2p immobilised on NTA chips at 20 μg/ml; single-cycle kinetics with M1 diUb at 0, 100, 200, 500, 1,000 and 2,000 nM; 10 mM HEPES, 150 mM NaCl, 0.05% Tween 20, 0.1% BSA, 50 μM EDTA, pH 8.0; conditions: both partners purified
T1 construct: ubiquitin, first (distal) unit of the M1-linked dimer; ubiquitin, second (proximal) unit, joined by its M1 to G76 of the first unit; also called linear di-Ub; M1 diUb conjugates; source: bought: UbiQ (UbiQ-L01)

Sequence of CHN-1 (C. elegans) (main, as listed by the source): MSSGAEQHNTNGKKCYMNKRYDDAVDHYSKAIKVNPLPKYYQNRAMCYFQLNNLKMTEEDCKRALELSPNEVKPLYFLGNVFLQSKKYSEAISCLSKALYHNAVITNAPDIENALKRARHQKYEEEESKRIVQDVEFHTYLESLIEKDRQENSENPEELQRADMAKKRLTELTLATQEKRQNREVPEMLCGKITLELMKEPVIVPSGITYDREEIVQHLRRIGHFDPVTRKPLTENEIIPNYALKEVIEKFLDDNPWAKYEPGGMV

B1: 6xHis::UFD-2^P951A (enzyme, C. elegans, UniProt Q09349 1-984, looked up)
chain: MIEDEKAGLQPMDISDASVFFFQADVESKDFLTSLFDCEGKSDDRMLRYADAIIDVQNLNFDVSPQCLQSNIAEIITKFVLLSQDGSRRGLSRSFNFIDPDIIAGCREEDAIEFLLINFVRCHHELGKSGTSNCYKKTLESTRKAVFSVFVMIQRGYLESQLRSQHASLVFTKRLLEDTVSNVFLRTLVEYLASTDECDEDAITETFNPIFGILRSGIICQRFEDNKDEIVRQILRVMNLLLSIRLPSNGPRPLSNLLVNREDFLPTPSEKIQGREFGLMSFLGPFFSYGLESSARRPNHRVFVDCEEDARKYDGSVNTEQKLYFQRMDPIRTMLHQLMLPLASDQGSRNKTLRWIATIISTNDIRTRSHYDPSDVLCDHYMTNFLSVMYMFSEKIDLSKIIVDYPFLPSSLINISKETRLKMDESGAVAFASQFADRPDEYHFSTVCFFLTIAAQRLVIPPLMNQISEYSRHLKELKHKINALKEKLNTVSGFERAEVEKKLNYETEHWKLMSRHLLCVKTQAQDPALMASSMDFVDKQMKFILNLLCDNLDLLGDDSQLPTEVSQMFCALPEYFLEDALDFYIFAISNGMKLLMERNADWISRLTVLFTQYHYIKSPFLVSKLVRVLSSIQPPLWFNVVRLRMAQENLLMCMIKFYSDFEDNGDFYEKFNVRGNIQYMLEKMEEDMFYKGKFMDMARECGAEFIRFVNMVINDATWCIDESLSGLKSIHDVEKKMANKVEWDNTDQEIRNQDLGVYEEAKRKVKGWLGTAKSNLKLLLSITVNSPEPFRTPVLGERLAAMLNHNLSQLIGSKASELKVKDPRSYGWEPREFVSLLISIYLKLNMPAFVKYIAYDERTYSPEFFHNAIECMRKNSIVGFSQLESFEHLAEDVKKEYEAKAELEEEYDDVPEEFKDPIMDAIMVDPVKLPSGHVMDRAVIERHLLSTPNNAFNRAPLSHNELSPDSELKAKIQEWICQKRNSKK
discharge of Ub-charged UBE2D1 by CHN-1, alone or mixed with UFD-2^P951A (CHN-1): ≥ 2 fold

B2: 6xHis::Ufd2p (enzyme, S. cerevisiae, UniProt P54860 1-961, looked up)
chain: MTAIEDILQITTDPSDTRGYSLLKSEEVPQGSTLGVDFIDTLLLYQLTENEKLDKPFEYLNDCFRRNQQQKRITKNKPNAESLHSTFQEIDRLVIGYGVVALQIENFCMNGAFINYITGIVSNVNSYTDFLSQIIQRAILEGTALDLLNAVFPTLLEYCNKHVSHFDLNESVIYNNVLTIFELFVTFKPIAEIFTKIDGFFADYSCKPQDFERKTILGPILSLSPIEAAVAIRNYGDNLLRSKQQTAMIHESLQAEHKVVIDRLFFIVDKLVRGSLNSRTDMISYFAHIANKNHLRRADHPPFKELSSNGFMSNITLLLVRFSQPFLDISYKKIDKIDANYFNNPSLFIDLSGETRLNSDFKEADAFYDKNRKTADSKPNFISDCFFLTLTYLHYGLGGTLSFEEKMGSEIKALKEEIEKVKKIAANHDVFARFITAQLSKMEKALKTTESLRFALQGFFAHRSLQLEVFDFICGASTFLIRVVDPEHEFPFKQIKLPLIPDQIGVENVDNADFLRAHAPVPFKYYPEFVVEGPVNYSLYISKYQTSPIFRNPRLGSFVEFTTMVLRCPELVSNPHLKGKLVQLLSVGAMPLTDNSPGFMMDIFEHDELVNKNLLYALLDFYVIVEKTGSSSQFYDKFNSRYSISIILEELYYKIPSYKNQLIWQSQNNADFFVRFVARMLNDLTFLLDEGLSNLAEVHNIQNELDNRARGAPPTREEEDKELQTRLASASRQAKSSCGLADKSMKLFEIYSKDIPAAFVTPEIVYRLASMLNYNLESLVGPKCGELKVKDPQSYSFNPKDLLKALTTVYINLSEQSEFISAVAKDERSFNRNLFVRAVDILGRKTGLASPEFIEKLLNFANKAEEQRKADEEEDLEYGDVPDEFLDPLMYTIMKDPVILPASKMNIDRSTIKAHLLSDSTDPFNRMPLKLEDVTPNEELRQKILCFKKQKKEEAKHKASE
notes: Ufd2p, S. cerevisiae; from pET28a-6xHis::Ufd2p; The plasmid is from Liu et al (2017); also called S. cerevisiae Ufd2p; His-tagged Ufd2p; source: bacterial expression system, purified; not shown: 6xHis, N-terminal, kept
binding result [1]: binds
